Results on two molecules are retold here after US5547938A, “Therapeutic agent for digestive tract diseases using glicentin” (Nisshin Flour Milling Co., Ltd., priority 1993, dated 1996).

Ends that are not written are not given here.

Series [1] concerns intestinal mucosa. Put plainly: Example 2: intestinal mucosal weight in rats after subcutaneous glicentin or control peptides. Format: in vivo. Conditions: 1 nmol per rat s.c.; for Intestinal mucosal weight: third of four equal parts of small intestine from the duodenum.
Procedure: A solution of glicentin dissolved in a small amount of distilled water for injection was diluted with a 2% solution of bovine albumin prepared with a physiological saline solution for injection to a concentration of 400 μg/ml (50 nmol/ml). The solution was frozen and stored until used. On use it was 1:10 diluted with the physiological saline solution and subcutaneously given to rats at a dose of 0.2 ml, i.e., 1 nmol of glicentin per rat.
They were prepared and administered in the same way as glicentin at a dose of 1 nmol.
The small intestine was divided equally into four parts and the third part from the duodenum was measured for the weight of the mucosa.
The test system of series [2] is male BALB/c mice. Nature of the series: Intraperitoneal administration of human glicentin to mice, appearance observed. Format: in vivo, mouse. Conditions: 10 mg/kg intraperitoneally, male BALB/c mice (6 weeks age).
In series [3] the test system is intestinal mucosae. Put plainly: Example 1: nutritional (trophic) effect of glicentin on the intestinal mucosae of rats fed an elemental nutrition. Format: in vivo, rat. As to conditions: 10 μg s.c. every 12 hours for 7 days. Here is the method:
An experiment was performed in male SD rats weighing 140-160 g which had been fed on standard food under light-dark condition of a cycle of 12 hours. The food which was replaced by an elemental nutrition (Elental®, Morishita-Roussel Japan) was taken ad lib., and remained unchanged until the experiment was finished. After feeding on the component nutrition for 3 days, administration of glicentin prepared as described below was started.
Gelatin was dissolved in warm water to a weight ratio of 16%, and the solution autoclaved and cooled to room temperature. To 40 ml of the gelatin solution was added a solution of 1 mg of glicentin in 10 ml of distilled water with stirring at room temperature. The mixture was divided into test tubes, freeze dried and stored for use.
The gelatin solution was subcutaneously given at a dose of 10 μg per glicentin every 12 hours for 7 days to examine a nutritional effect of glicentin on the intestinal mucosae. A similar gelatin solution containing no glicentin was given for the same period of time as a control for comparison. Twelve hours after completion of the final administration, the rats were sacrificed and subjected to removal of the small intestine in the region from the Treitz's ligamentum to the cecum. The removed small intestine was cut at the central site to separate it into the jejunum and the ileum. The lumen of each of the intestinal tracts was gently washed with an aqueous physiological saline solution. The intestinal tracts were longitudinally incised, respectively, and tissues were removed of a portion of the jejunum in proximity to the duodenum, a portion of the ileum in proximity to the cecum and a portion around the boundary between the jejunum and the ileum and fixed in a 3.7% formalin solution as the proximal, distal and middle sites of the small intestine, respectively. Mucosae were collected by ablation with a spatula from the remainder of the intestinal tracts and weighed, respectively.
The tissues fixed in the formalin solution were embedded in paraffin to form a preparation which was stained with hematoxylin-eosin and measured for height of the villi using an optical microscope.

Series [4] has as its system digestive tracts (gastric antrum, duodenum, jejunum). Nature of the series: Example 3: motility of the digestive tracts after meal in dogs (strain gauge transducers). As to conditions: 400 pmol/kg i.v. over 1 hour. The series is classed as in vivo, dog. Here is the method: An experiment was performed as described below in order to examine the action of glicentin on a motility of the digestive tracts after meal.
Six hybrid dogs weighing 16-18 kg were sutured with strain gauge transducers (manufactured by Star Medical, F121S) at a site of the gastric antrum 4 cm from the pyloric ring, a site of the duodenum for the main incurrent pancreatic duct and a site of the jejunum 10 cm from the Treitz's ligamentum, respectively, to measure the contractile force intensity of the circular muscle. Recovery period for the suture was 2 weeks.
Three of the 6 dogs were intravenously given over 1 hour 15 ml of a physiological saline solution in which 400 pmol of glicentin had been dissolved per kg of bodyweight. The remaining three received an aqueous physiological solution containing no glicentin in the same way as above as a control for comparison. The dogs were fed on 15 g of a solid diet (SD®, manufactured by Oriental Yeast K. K.) and 15 g of Vitaone® (manufactured by Nihon Pet Food K. K. and Kyodo Shiryo K. K. ) per kg of bodyweight simultaneously with the intravenous administration.
Then, the motor activity of the digestive tracts and length of the post-feed period were measured. Intensity of the contraction in the post-feed period was integrated for the two-hour measurements and evaluated in comparison with the mean level of the signal peak in phase 3 motor activity of the intestinal tracts in hunger and taken as a motor index.

The mark [5] stands for this setting: post-feed contraction integrated over two hours relative to phase 3 peak.

The molecule “Glucagon-like peptide-1: peptide hormone which occurs in a region of preproglucagon containing no glicentin (HAEGTFTSDVSSYLEGQAAKEFIAWLVKGR; ends and bridges not checked; UniProt P01275 98-127, looked up) [reference compound]” had an Intestinal mucosal weight in series [1] of 0.498 ± 0.042 g.

B1: Glicentin: Enteroglucagon peptide comprising 69 amino acid residues (SEQ ID NO:1), prepared by genetic engineering procedure (protein)
chain: RSLQDTEEKSRSFSASQADPLSDPDQMNEDKRHSQGTFTSDYSKYLDSRRAQDFVQWLMNTKRNRNNIA
In the case of B1, in series [2], the change in appearance result is given as “no change in appearance”. In addition, in series [3], the “Ileal mucosal weight per 100 g bodyweight” value was 0.57 ± 0.04 g/100 g bodyweight, the “Jejunal mucosal weight per 100 g bodyweight” value is on record as 0.75 ± 0.08 g/100 g bodyweight, the “Length of small intestine per 100 g bodyweight” value is listed as 66.4 ± 1.7 cm/100 g bodyweight and the “Whole small intestinal mucosal weight per 100 g bodyweight” value came to 1.32 ± 0.03 g/100 g bodyweight. Also, in series [1] (versus control), the “effect on weight of intestinal mucosa (in words)” value is “significantly increases”. In series [1], this molecule displayed an Intestinal mucosal weight of 0.614 ± 0.025 g. In series [4] (simultaneously with feeding), the “Length of post-feed period” value turned out to be 13.6 ± 1.0 h. In addition, in series [4] (setting [5]), the “Motor index, duodenum” value is 0.675 ± 0.4; the “Motor index, jejunum” value is 1.087 ± 0.2; the “Motor index, stomach vestibulum” value came to 0.878 ± 0.1.
